The record followed here is patent US20090098112A1 (Genentech, published 2009).

Numbering of substitutions follows the chain as printed. Names may count otherwise.

Assay [1] concerns the target T1, recombinant human integrin α5β1 (R&D) (human, UniProt P08648 42-995; P05556 21-728).
T1 construct: Bought recombinant heterodimer (R&D); It was used coated on plates and in solution in the phage ELISA, and as analyte or immobilized in BIAcore; also called alpha5beta1; a5b1
The experiment in a line: phage competition ELISA IC50 of the Fab-phage against human integrin α5β1, relative to parental h7H5.v1; down arrow = loss, up arrow = improvement of binding affinity. As to the method:
Substitutions with other resides at various positions was achieved by Kunkel mutagenesis using a separate oligonucleotide for each position. […] The IC50 values for binding affinity were determined by phage competition ELISA in FIG. 6. Two variants, h7H5.v2 and h7H5.v3 as indicated were selected to include glycine substitution at position 65 of CDR-H2, cloned into hIgG1 vector, and evaluated binding affinities using BIAcore instrument.
(§1) MAXISORP™ microtiter plates were coated with recombinant human integrin α5β1 (R&D) at 5 μg/ml in PBS overnight and then blocked with PBST buffer (0.5% BSA and 0.05% Tween 20 in PBS) for an hour at room temperature. Phage from culture supernatants were incubated with serially diluted human integrin α5β1 in PBST buffer in a tissue-culture microtiter plate for an hour, after which 80 μl of the mixture was transferred to the target-coated wells for 15 minutes to capture unbound phage. The plate was washed with PBT buffer (0.05% Tween 20 in PBS), and HRP-conjugated anti-M13 (Amersham Pharmacia Biotech) was added (1:5000 in PBST buffer) for 40 minutes. The plate was washed with PBT buffer and developed by adding tetramethylbenzidine substrate (Kirkegaard and Perry Laboratories, Gaithersburg, Md.). The absorbance at 450 nm was plotted as a function of target concentration in solution to determine phage IC₅₀.

The target of assay [2] is T1, recombinant human integrin α5β1 (R&D). The experiment in a line: phage competition ELISA: Fab-phage incubated with serially diluted soluble human integrin α5β1, unbound phage captured on plate-coated integrin α5β1, anti-M13-HRP, A450. As to the method:
Mutation at each position was generated by Kunkel mutagenesis using a separate oligonucleotide. Phage competition ELISA was utilized for evaluating all of the variants. […] Binding affinities (IC50) against human integrin α5β1 was determined.
as §1

Assay [3] has the same target. The experiment in a line: SPR (BIACORE-3000), antibody immobilized on CM5 chip (about 450 RU), human integrin α5β1 injected 300 nM to 0.29 nM, 25 °C, 1:1 Langmuir fit. As to the method: FIG. 7 depicts the results of a BIACORE® analysis of humanized 7H5.v1, v2 and v3-IgG against human integrin α5β1. […] Humanized 7H5.v2 indicates the most binding affinity improvement in off-rate.
(§2) Affinity determinations were performed by surface-plasmon resonance using a BIACORE™-3000 instrument. Immobilization was achieved by random coupling through amino groups using a protocol provided by the manufacturer. Two different formats were operated to study binding kinetics for antibody against human integrin α5β1. In FIGS. 3A, 7, and 9A, antibodies were immobilized on a CM5 sensor chip around 450 response units (RU), and 2-fold serial diluted concentrations of human integrin α5β1 (300 nM to 0.29 nM) in PBT buffer (0.05% Tween 20 in PBS) were injected with a flow rate of 30 μl/min at 25° C. In FIGS. 3B and 9B, human integrin […] was immobilized on a CM5 sensor chip around 800 RU, and 2-fold serial diluted concentrations of antibodies (200 nM to 0.2 nM) in PBT buffer (0.05% Tween 20 in PBS) were injected with a flow rate of 30 μl/min at 25° C. After each injection, the chip was regenerated using 10 mM Glycine-HCl buffer at pH 1.7. Binding response was corrected by subtracting the RU from a blank flow cell. Association rates (kₒₙ) and dissociation rates (koff) were calculated using a simple one-to-one Langmuir binding model (BIAcore Evaluation Software version 3.2). The equilibrium dissociation constant (Kd) was calculated as the ratio koff/kₒₙ.

For assay [4] the target is unchanged. The experiment in a line: SPR (BIACORE-3000), human integrin α5β1 immobilized on CM5 chip (about 800 RU), antibody injected 200 nM to 0.2 nM, 25 °C, 1:1 Langmuir fit. As to the method: (§3) FIG. 9 depicts the results of a BIACORE® analysis of humanized 7H5.v2, v4 and v5-IgG against human integrin α5β1.
as §2

Assay [5] shares this target. Description: SPR (BIACORE-3000), antibody immobilized on CM5 chip (about 450 RU), human integrin α5β1 injected 300 nM to 0.29 nM, 25 °C, 1:1 Langmuir fit. On the procedure: as §3, §2
This is another data set of the same source.

Assay [6] has the same target. The description is as above. On the procedure: (§4) FIG. 3 depicts the results of a BIACORE® analysis of chimeric 7H5-IgG and humanized 7H5.v1-IgG against human integrin α5β1.
as §2
The source holds these as a separate data set.

Assay [7] shares this target. Description: SPR (BIACORE-3000), human integrin α5β1 (R&D) immobilized on CM5 chip (about 800 RU), antibody injected 200 nM to 0.2 nM, 25 °C, 1:1 Langmuir fit. On the procedure: as §4, §2

T1 sequence (P08648 42-995 limits assumed, chain 1 of 2): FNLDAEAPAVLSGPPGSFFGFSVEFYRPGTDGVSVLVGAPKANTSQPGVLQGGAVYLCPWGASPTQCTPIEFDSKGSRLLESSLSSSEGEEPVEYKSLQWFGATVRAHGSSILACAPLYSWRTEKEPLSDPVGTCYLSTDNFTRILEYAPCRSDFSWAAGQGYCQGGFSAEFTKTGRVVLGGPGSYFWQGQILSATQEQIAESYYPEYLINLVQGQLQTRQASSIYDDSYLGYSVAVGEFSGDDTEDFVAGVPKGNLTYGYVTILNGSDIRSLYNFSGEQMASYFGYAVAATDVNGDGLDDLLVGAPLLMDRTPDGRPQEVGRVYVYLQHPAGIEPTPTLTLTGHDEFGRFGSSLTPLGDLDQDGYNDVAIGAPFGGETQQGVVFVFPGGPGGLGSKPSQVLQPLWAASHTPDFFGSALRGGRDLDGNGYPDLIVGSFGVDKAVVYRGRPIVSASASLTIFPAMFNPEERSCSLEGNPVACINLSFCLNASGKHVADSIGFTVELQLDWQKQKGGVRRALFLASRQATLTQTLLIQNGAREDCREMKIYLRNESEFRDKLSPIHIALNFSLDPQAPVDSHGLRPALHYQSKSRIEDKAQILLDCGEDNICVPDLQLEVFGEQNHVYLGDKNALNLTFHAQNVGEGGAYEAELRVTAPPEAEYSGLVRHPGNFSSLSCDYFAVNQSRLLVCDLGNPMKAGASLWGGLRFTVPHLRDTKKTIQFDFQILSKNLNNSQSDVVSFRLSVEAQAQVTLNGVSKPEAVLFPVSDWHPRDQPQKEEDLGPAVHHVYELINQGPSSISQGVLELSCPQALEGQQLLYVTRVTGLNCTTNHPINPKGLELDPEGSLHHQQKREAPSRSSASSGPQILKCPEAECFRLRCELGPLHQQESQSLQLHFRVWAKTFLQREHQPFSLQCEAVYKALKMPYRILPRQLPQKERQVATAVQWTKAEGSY
T1 sequence (P05556 21-728 limits assumed, chain 2 of 2): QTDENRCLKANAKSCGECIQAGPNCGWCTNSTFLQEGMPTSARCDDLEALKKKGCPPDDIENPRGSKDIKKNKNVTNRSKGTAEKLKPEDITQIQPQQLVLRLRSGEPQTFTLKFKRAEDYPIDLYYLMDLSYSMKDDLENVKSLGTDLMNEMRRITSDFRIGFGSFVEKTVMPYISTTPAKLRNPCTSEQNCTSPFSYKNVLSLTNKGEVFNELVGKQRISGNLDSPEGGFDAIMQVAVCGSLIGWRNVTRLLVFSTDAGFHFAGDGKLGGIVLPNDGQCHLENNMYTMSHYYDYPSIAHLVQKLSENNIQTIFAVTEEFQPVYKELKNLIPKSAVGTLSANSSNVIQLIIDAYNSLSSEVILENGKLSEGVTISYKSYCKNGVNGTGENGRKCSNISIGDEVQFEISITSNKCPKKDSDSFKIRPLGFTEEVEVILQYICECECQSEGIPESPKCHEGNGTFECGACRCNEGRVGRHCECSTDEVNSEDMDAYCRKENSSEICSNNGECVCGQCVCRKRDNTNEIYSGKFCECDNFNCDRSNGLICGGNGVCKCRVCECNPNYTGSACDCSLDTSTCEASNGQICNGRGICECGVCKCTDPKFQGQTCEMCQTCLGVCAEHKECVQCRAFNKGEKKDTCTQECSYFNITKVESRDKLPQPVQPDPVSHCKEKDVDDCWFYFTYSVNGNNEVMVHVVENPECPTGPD

B1: CDR-L1:N28A (Fab, part only; not given: VH end, constant domains, phage fusion, V domains shown, not shown: another chain or arm of the molecule; large carriers)
VL: DIQMTQSPSSLSASVGDRVTITCKASQAVGSDVAWYQQKPGKAPKTLIYSTSYRYSGVPSRFSGSGSGTDFTLTISSLQPEDFATYYCQQYNSYPFTFGQGTKVEIK
VH: EVQLVESGGGLVQPGGSLRLSCAASGYTFTDYYLYWVRQAPGKGLEWIGGISPSNGGTTFNDNFENKATLSVDKSKNTAYLQMNSLRAEDTAVYYCTRDAYGDWYFDVWGQGT
Regarding B1, the Relative Fold to h7H5.v1 in assay [1] was 2.1 fold. In addition, the IC50 (read off the curve) in assay [2] is 0.2 nM.

B2: CDR-H2:N62S (Fab, part only; not given: VH end, constant domains, phage fusion, V domains shown, not shown: another chain or arm of the molecule; a dimerising Fc or GST; large carriers)
VL: B1 VL with A28N
VH: B1 VH with N63S
Consider B2, for which the Relative Fold to h7H5.v1 in assay [1] came to 1.3 fold. Besides, in assay [2], the IC50 (read off the curve) turned out to be 0.1 nM.

B3: CDR-H2:N54A (Fab, part only; not given: VH end, constant domains, phage fusion, V domains shown, not shown: another chain or arm of the molecule; a dimerising Fc or GST; large carriers)
VL: B1 VL with A28N
VH: B1 VH with N55A
For the molecule B3, the Relative Fold to h7H5.v1 in assay [1] came out at 2.4 fold. The IC50 (read off the curve) in assay [2] came out at 0.2 nM.

B4: humanized 7H5.v2-IgG (antibody, V domains shown)
VH: B1 VH with N55S, N61A, N63A, N66G
VL: DIQMTQSPSSLSASVGDRVTITCKASQSVGSDVAWYQQKPGKAPKTLIYSTSYRYSGVPSRFSGSGSGTDFTLTISSLQPEDFATYYCQQYSSYPFTFGQGTKVEIKR
notes: also called h7H5.v2
In the case of B4, in assay [3], the dissociation constant (Kd) amounted to 0.77 nM, the koff was 6.2e-05 s⁻¹ and the association rate constant (kon) is 81000 M⁻¹ s⁻¹. In assay [4], the Kd worked out at 0.11 nM, the koff stood at 0.00015 s⁻¹ and the association rate constant (kon) was found to be 1.4e+06 M⁻¹ s⁻¹. Also, in assay [5], the Kd is 0.77 nM, the koff came to 6.4e-05 s⁻¹ and the kon is 83000 M⁻¹ s⁻¹.

B5: h7H5.v3 (antibody, human IgG1, V domains shown)
VH: B1 VH with N55S, N61A, N63S, N66G
VL: B4 VL
notes: as human IgG1; also called humanized 7H5.v3-IgG
For the molecule B5, in assay [3], the Kd turned out to be 1.07 nM, the koff was determined as 7.5e-05 s⁻¹ and the kon came to 70000 M⁻¹ s⁻¹.

B6: humanized 7H5.v4-IgG (antibody, V domains shown)
VH: B1 VH with T30S, I48V, N55S, N61A, N63A, N66G, K67R, A68F, L70I
VL: B4 VL with T46L
notes: also called h7H5.v4
On to B6, for which, in assay [4], the Kd was found to be 0.14 nM, the koff came out at 0.00013 s⁻¹ and the on-rate constant (kon) worked out at 930000 M⁻¹ s⁻¹. Also, in assay [5], the Kd came out at 0.73 nM, the koff is 5.5e-05 s⁻¹ and the kon was determined as 75000 M⁻¹ s⁻¹.

B7: h7H5.v5 (antibody, human IgG1, V domains shown)
VH: B1 VH with T30S, I48V, G49S, N55S, N61A, N63A, N66G, K67R, A68F, L70I
VL: B4 VL with T46L
notes: as human IgG1; also called humanized 7H5.v5-IgG
For the molecule B7, in assay [4], the Kd came to 0.26 nM, the koff was 0.00017 s⁻¹ and the kon stood at 660000 M⁻¹ s⁻¹. In assay [5], the Kd was 0.97 nM, the koff amounted to 6.7e-05 s⁻¹ and the on-rate constant (kon) was found to be 69000 M⁻¹ s⁻¹.

B8: h7H5.v1 (antibody, human IgG1, V domains shown)
VH: B1 VH
VL: B4 VL with S28N, S92N
notes: CDR graft of murine 7H5, as human IgG1; also called humanized 7H5.v1-IgG
On to B8, for which, in assay [3], the Kd is 1.91 nM, the koff was found to be 8.2e-05 s⁻¹ and the kon stood at 43000 M⁻¹ s⁻¹. Further, in assay [6], the equilibrium dissociation constant (Kd) came out at 3.67 nM, the koff was found to be 0.00018 s⁻¹ and the kon is 49000 M⁻¹ s⁻¹. In addition, in assay [7], the Kd turned out to be 0.23 nM, the koff amounted to 0.0002 s⁻¹ and the kon came to 870000 M⁻¹ s⁻¹.
